Results as given in publication PMC3853120 (Science (New York, N.Y.), 2013).
Read-outs that look alike come from different tables or passages of the source.

Legend:
[1] = target: T1, oligomerized biotinylated synthetic human Aβ1-42 peptide (human, UniProt P05067 672-713, biotinylated (position not given))
[2] = target: T1, oligomerized biotinylated synthetic …; remark: listed apart in the source

B1: human LilrB2 (leukocyte immunoglobulin-like receptor B2) expressed on HEK293 cells (receptor, UniProt Q8N423 22-597, looked up)
chain: QTGTIPKPTLWAEPDSVITQGSPVTLSCQGSLEAQEYRLYREKKSASWITRIRPELVKNGQFHIPSITWEHTGRYGCQYYSRARWSELSDPLVLVMTGAYPKPTLSAQPSPVVTSGGRVTLQCESQVAFGGFILCKEGEDEHPQCLNSQPHARGSSRAIFSVGPVSPNRRWSHRCYGYDLNSPYVWSSPSDLLELLVPGVSKKPSLSVQPGPVMAPGESLTLQCVSDVGYDRFVLYKEGERDLRQLPGRQPQAGLSQANFTLGPVSRSYGGQYRCYGAHNLSSECSAPSDPLDILITGQIRGTPFISVQPGPTVASGENVTLLCQSWRQFHTFLLTKAGAADAPLRLRSIHEYPKYQAEFPMSPVTSAHAGTYRCYGSLNSDPYLLSHPSEPLELVVSGPSMGSSPPPTGPISTPGPEDQPLTPTGSDPQSGLGRHLGVVIGILVAVVLLLLLLLLLFLILRHRRQGKHWTSTQRKADFQHPAGAVGPEPTDRGLQWRSSPAADAQEENLYAAVKDTQPEDGVEMDTRAAASEAPQDVTYAQLHSLTLRRKATEPPPSQEREPPAEPSIYATLAIH
With B1 the Kd [1] was 206 ± 65 nM and the Kd [2] was 250 nM.
